Source: patent US20150216779A1, “COMPOSITIONS FOR TARGETED ANTI-AGING THERAPY” (THE TEXAS A&M UNIVERSITY SYSTEM, priority 2012, published 2015)

What was measured:
[1] = Turbidity after heating at 90° C. for 30 seconds (plate heat exchanger); format: physicochemical; conditions: 1 mg/ml lactoferrin in 10 mM potassium acetate, pH 6.3; heated at 90° C. for 30 seconds
Protocol: Formulations containing heat-stabilized lactoferrin (1 mg/ml) without added branched-chain amino acids (Formulation 1) and heat-stabilized lactoferrin (1 mg/ml) with added branched-chain amino acids (2 mg/ml) (Formulation 2) were dissolved in the buffered solution (10 mM potassium acetate, pH 6.3) to make 4 liters solution. The two liquid formulations were heated by using a plate heat exchanger at 90° C. for 30 seconds, and cooled to 5° C., after which they were stored in sterilized bottles, and bubbled with carbon dioxide (CO2) in an aseptic room. The two resultant liquid formulations with a zinc ion concentration of 2.4 mg per 100 ml had excellent taste and appearance. […] Lactoferrin aggregation occurred at pH 6.3, which corresponded to its high thermal instability.

[2] = heat-treated at 63 and 85° C.; cited from earlier work

B1: lactoferrin: iron-binding glycoprotein of the transferrin family present in milk; unstabilized buffered solution at 1 mg/ml (protein, UniProt P24627 20-708, looked up)
Lactotransferrin: APRKNVRWCTISQPEWFKCRRWQWRMKKLGAPSITCVRRAFALECIRAIAEKKADAVTLDGGMVFEAGRDPYKLRPVAAEIYGTKESPQTHYYAVAVVKKGSNFQLDQLQGRKSCHTGLGRSAGWIIPMGILRPYLSWTESLEPLQGAVAKFFSASCVPCIDRQAYPNLCQLCKGEGENQCACSSREPYFGYSGAFKCLQDGAGDVAFVKETTVFENLPEKADRDQYELLCLNNSRAPVDAFKECHLAQVPSHAVVARSVDGKEDLIWKLLSKAQEKFGKNKSRSFQLFGSPPGQRDLLFKDSALGFLRIPSKVDSALYLGSRYLTTLKNLRETAEEVKARYTRVVWCAVGPEEQKKCQQWSQQSGQNVTCATASTTDDCIVLVLKGEADALNLDGGYIYTAGKCGLVPVLAENRKSSKHSSLDCVLRPTEGYLAVAVVKKANEGLTWNSLKDKKSCHTAVDRTAGWNIPMGLIVNQTGSCAFDEFFSQSCAPGADPKSRLCALCAGDDQGLDKCVPNSKEKYYGYTGAFRCLAEDVGDVAFVKNDTVWENTNGESTADWAKNLNREDFRLLCLDGTRKPVTEAQSCHLAVAPNHAVVSRSDRAAHVKQVLLHQQALFGKNGKNCPDKFCLFKSETKNLLFNDNTECLAKLGGRPTYEEYLGTEYVTAIANLKKCSTSPLLEACAFLTR
appearance of solution after heating (turbidity / transparency) [1]: turbid | immunological properties after heat treatment [2]: loses its immunological properties
